Results published in patent US6867010.

Experiments:
[1] = molecular target: base-linker-oligodeoxynucleotide conjugate (compound 8); test: phage crosslinked to biotinylated base-linker-oligodeoxynucleotide conjugate in EDTA, captured on streptavidin beads, titered by direct infection with the beads
[2] = molecular target: base-linker-pTp conjugate (compound 9); test: phage crosslinked to biotinylated base-linker-pTp conjugate, captured on streptavidin beads, titered by direct infection with the beads
[3] = molecular target: base-linker-oligodeoxynucleotide conjugate (compound 8); test: phage crosslinked to biotinylated base-linker-oligodeoxynucleotide conjugate, captured on streptavidin beads, titered after DNase I release
[4] = molecular target: base-linker-oligodeoxynucleotide conjugate (compound 8); test: phage without acid peptide incubated with biotinylated oligodeoxynucleotide-peptide B conjugate, captured on streptavidin beads, phage titering

| Substance | efficiency of immobilization [1] | efficiency of phage immobilization [2] | true immobilization efficiency [3] | percent of phage immobilized [4] |
| --- | --- | --- | --- | --- |
| acid peptide A-pIII fusion displayed on acid helper phage (M13K07 helper phage with the acidic peptide A and a C-terminal GGC extension inserted at the N-terminus of pIII) (from UniProt P69168 1-3) | 10% | 10% | 80% | – |
| wildtype pIII protein on phage produced with wildtype M13K07 helper phage (from UniProt P69168 19-424) | – | – | – | 0.3% |
